Test results as given in patent US20090156476A1 (NASCACELL TECHNOLOGIES, published 2009).
Changes are numbered by the printed parent chain. Ends that are not written are not given here.

T1: TPOR/4Rα hybrid receptor (fusion of the hTPOR extracellular domain and the intracellular 4Rα domain from … (human, UniProt P40238 26-491; P24394 257-825, limits assumed)
T1 sequence (looked up): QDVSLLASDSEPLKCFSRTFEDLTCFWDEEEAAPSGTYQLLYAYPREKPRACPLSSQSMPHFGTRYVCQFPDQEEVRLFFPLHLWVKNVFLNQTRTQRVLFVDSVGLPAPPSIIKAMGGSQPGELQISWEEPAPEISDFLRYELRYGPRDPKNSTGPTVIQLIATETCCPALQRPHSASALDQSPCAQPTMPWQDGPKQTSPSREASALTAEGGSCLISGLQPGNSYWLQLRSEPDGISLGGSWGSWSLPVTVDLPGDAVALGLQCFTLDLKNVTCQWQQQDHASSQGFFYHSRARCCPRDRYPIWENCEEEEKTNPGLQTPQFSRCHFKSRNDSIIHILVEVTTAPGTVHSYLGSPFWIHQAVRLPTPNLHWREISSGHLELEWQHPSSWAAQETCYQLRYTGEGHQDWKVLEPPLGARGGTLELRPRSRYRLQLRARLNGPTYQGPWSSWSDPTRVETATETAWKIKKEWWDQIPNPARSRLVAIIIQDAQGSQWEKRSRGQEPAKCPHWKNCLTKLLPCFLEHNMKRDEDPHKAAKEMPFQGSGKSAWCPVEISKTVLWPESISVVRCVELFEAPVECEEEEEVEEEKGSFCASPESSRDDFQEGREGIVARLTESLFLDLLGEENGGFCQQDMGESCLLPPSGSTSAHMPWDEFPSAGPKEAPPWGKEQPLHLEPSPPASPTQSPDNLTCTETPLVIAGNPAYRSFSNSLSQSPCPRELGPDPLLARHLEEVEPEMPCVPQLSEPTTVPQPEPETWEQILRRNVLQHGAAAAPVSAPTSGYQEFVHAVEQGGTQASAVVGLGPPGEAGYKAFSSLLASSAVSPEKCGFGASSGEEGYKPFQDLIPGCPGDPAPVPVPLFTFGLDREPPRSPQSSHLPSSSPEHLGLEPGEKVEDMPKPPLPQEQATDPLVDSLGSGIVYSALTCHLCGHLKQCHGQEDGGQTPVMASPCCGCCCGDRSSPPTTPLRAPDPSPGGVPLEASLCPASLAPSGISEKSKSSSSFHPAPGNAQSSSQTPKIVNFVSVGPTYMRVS

B1: dimeric SE-ET-TP-020 (DSS-crosslinked dimer) (designed binder)
chain: GCIEGPTLRQWLAARACKQDSDCLAGCVCGPNGFCGS
modifications: cysteine pairing not given here; also: DSS-crosslinked dimer, crosslink site not given here
B2: dimeric SE-ET-TP-030 (DSS-crosslinked dimer) (designed binder)
chain: GCIEGPTLRQWLAACKQDSDCLAGCVCGPNGFCGS
modifications: cysteine pairing not given here; also: DSS-crosslinked dimer, crosslink site not given here
B3: dimeric SE-AG-TP-040 (DSS-crosslinked dimer) (designed binder)
chain: GCVRLHESCLGQQVPCCDPAATCGGTALAIEGPTLRQWLAARACKGS
modifications: cysteine pairing not given here; also: dimer crosslinked by DSS, site of crosslink not given here
B4: dimeric SE-AG-TP-050 (DSS-crosslinked dimer) (designed binder)
chain: B3 chain with A27C, A40C
modifications: cysteine pairing not given here; also: dimer crosslinked by DSS, site of crosslink not given here

target: T1, TPOR/4Rα hybrid receptor (fusion of the …); experiment: cell-based or functional assay

First: B1
Second: B2
The “Agonist EC50[nM] (Ba/F3 luciferase reporter assay)” value of the first is 1.8-fold lower: 1.4 nM for the first, 2.5 nM for the second.

B3 and B4 are within 1.5-fold of each other in “Agonist EC50[nM] (Ba/F3 luciferase reporter assay)” value: ~2 nM for the first, 2.5 nM for the second.
